The results in this text go back to article PMC4470286 (Genes & Development, 2015).

T1: Fob1 (wild type) without GST, purified from yeast (S. cerevisiae, UniProt O13329 1-566)
T1 sequence (looked up): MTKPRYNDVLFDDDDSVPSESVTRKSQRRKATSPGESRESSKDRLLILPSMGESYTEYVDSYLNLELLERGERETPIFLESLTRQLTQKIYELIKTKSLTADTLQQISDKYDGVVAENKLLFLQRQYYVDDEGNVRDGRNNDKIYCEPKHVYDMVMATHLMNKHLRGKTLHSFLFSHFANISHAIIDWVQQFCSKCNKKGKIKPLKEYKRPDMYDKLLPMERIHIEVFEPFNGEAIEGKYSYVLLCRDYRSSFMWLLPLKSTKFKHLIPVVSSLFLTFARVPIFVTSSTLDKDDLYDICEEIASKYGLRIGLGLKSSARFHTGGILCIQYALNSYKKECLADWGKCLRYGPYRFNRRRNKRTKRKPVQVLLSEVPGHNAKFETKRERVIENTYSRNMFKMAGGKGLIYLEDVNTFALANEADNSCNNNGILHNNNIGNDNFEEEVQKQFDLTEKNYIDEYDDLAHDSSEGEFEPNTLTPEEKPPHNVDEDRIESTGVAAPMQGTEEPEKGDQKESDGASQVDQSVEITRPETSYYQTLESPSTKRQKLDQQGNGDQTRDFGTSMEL

B1: C-terminal Fob1 with a kinase tag (from a pMAL fusion) (domain or fragment, S. cerevisiae, UniProt O13329 430-566, looked up)
chain: ILHNNNIGNDNFEEEVQKQFDLTEKNYIDEYDDLAHDSSEGEFEPNTLTPEEKPPHNVDEDRIESTGVAAPMQGTEEPEKGDQKESDGASQVDQSVEITRPETSYYQTLESPSTKRQKLDQQGNGDQTRDFGTSMEL
modifications: 32P-labeled
B2: N-Fob1-GST, purified from yeast (domain or fragment, S. cerevisiae, UniProt O13329 1-429, looked up)
chain: MTKPRYNDVLFDDDDSVPSESVTRKSQRRKATSPGESRESSKDRLLILPSMGESYTEYVDSYLNLELLERGERETPIFLESLTRQLTQKIYELIKTKSLTADTLQQISDKYDGVVAENKLLFLQRQYYVDDEGNVRDGRNNDKIYCEPKHVYDMVMATHLMNKHLRGKTLHSFLFSHFANISHAIIDWVQQFCSKCNKKGKIKPLKEYKRPDMYDKLLPMERIHIEVFEPFNGEAIEGKYSYVLLCRDYRSSFMWLLPLKSTKFKHLIPVVSSLFLTFARVPIFVTSSTLDKDDLYDICEEIASKYGLRIGLGLKSSARFHTGGILCIQYALNSYKKECLADWGKCLRYGPYRFNRRRNKRTKRKPVQVLLSEVPGHNAKFETKRERVIENTYSRNMFKMAGGKGLIYLEDVNTFALANEADNSCNNNG
B3: Reb1 protein of Schizosaccharomyces pombe (natural protein, UniProt Q9P6H9 1-504, looked up)
chain: MDTSVLNPELQIHGFIGVDSLQSSRKRKNDFDDFPLNKGLKTNNNDYSGSIEPKFSPALSIKEDGKNDRNFEALMSLQAQDSNLSEQNTSIHLDALASSSIALGNDNVDSSAFLSKVNKGVNAMRNSTSNQTNDSILISPSEITNMDPFLKGSARWTAEHWDYLERRMQNFCQTYSLDHTQVADSLHEKRLHGPLSSLVKLLVQEMPSFTRRTILRHLRALYNIPGYEKYSRKNSSGRGDFGVQETAIISQEVHNFIMDQGWSEYQFCNQIWAGKCPKTIRMFYSNLYKKLSHRDAKSIYHHVRRAYNPFEDRCVWSKEEDEELRKNVVEHGKCWTKIGRKMARMPNDCRDRWRDVVRFGDKLKRNAWSLEEETQLLQIVAELRNREDLSSDINWTLVAQMLGTRTRLQCRYKFQQLTKAASKFELQENVWLLERIYDSLLNNGGKIHWENIVKEANGRWTRDQMLFQFINLKKMIPSYDNLPLLEATKSAIDDFKVVLSGFSN

Series [1] has as its target B2. Put plainly: pull-down.
Series [2] deals with T1, Fob1 (wild type) without GST, purified …. Put plainly: ELISA. (In general: ELISA stands for enzyme-linked immunosorbent assay.)
The series “crystal structure” concerns the molecule itself. Nature of the series: crystal structure.

As to B1, the binding result in series [1] was “binds”.
For B2, in series [2], the binding result is “binds”.
As for B3, in the series “crystal structure”, the “stoichiometry N” value worked out at 2.

The term stoichiometry N denotes a count of units in the complex or per binding partner.
